What is called Kd is the constant that tells how readily two partners part at equilibrium.

The target in test [1] is T1, Cynomolgus IL-2Rβ (Macaca fascicularis, UniProt Q38J85).
T1 construct: corresponding to residues Ala1-Thr215 of the extracellular domains excluding the signal peptide
T1 sequence (Q38J85 26-240 limits assumed): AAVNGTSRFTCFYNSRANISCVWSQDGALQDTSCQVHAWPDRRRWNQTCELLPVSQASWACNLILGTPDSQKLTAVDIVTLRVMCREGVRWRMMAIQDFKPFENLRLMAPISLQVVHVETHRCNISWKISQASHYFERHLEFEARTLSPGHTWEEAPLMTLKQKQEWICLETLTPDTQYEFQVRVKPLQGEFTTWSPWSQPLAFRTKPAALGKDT
Briefly: SPR binding affinity to recombinant cynomolgus IL-2Rβ (Biacore). To be noted: 1:1 binding model. How it is done:
(§1) Surface plasmon resonance (SPR) was used to determine the binding affinities. The M6-1625 and M10-1275 antibodies were captured onto a Cytiva Protein A Chip for 60 seconds at 0.5 μg/mL for 60 seconds. The antibodies were exposed to recombinant human LL-2Rβ or cynomolgus LL-2Rβ (corresponding to residues Ala1-Thr215 of the extracellular domains excluding the signal peptide) at typical concentrations ranging from 0.4 nM to 11 nM with typical 300 second associations and 1200 second dissociations using a BiacoreS200 instrument. Sensorgrams were fit globally using a 1:1 binding model in the Biacore T200 Evaluation Software to calculate on- and off-rates and KD values.
A general note: Surface plasmon resonance follows binding to a sensor surface in real time, without labels.

The target in test [2] is T2, Human IL-2Rβ (Homo sapiens, UniProt P14784).
T2 construct: corresponding to residues Ala1-Thr215 of the extracellular domains excluding the signal peptide
T2 sequence (P14784 26-240 limits assumed): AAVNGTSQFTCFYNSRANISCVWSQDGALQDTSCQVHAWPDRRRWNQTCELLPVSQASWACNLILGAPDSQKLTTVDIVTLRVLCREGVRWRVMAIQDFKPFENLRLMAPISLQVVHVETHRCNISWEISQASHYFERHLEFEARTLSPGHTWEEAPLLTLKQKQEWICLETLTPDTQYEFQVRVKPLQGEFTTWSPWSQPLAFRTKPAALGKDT
Briefly: SPR binding affinity to recombinant human IL-2Rβ (Biacore). Conditions: 1:1 binding model. How it is done: as §1

The test system of test [3] is PHA-stimulated primary human T cell blasts. Briefly: IL-2- or IL-15-induced proliferation of PHA-stimulated T cell blasts (CTG). The test is classed as cell-based. Conditions: IL-2 (15 pM) or IL-15 (150 pM) induced proliferation, IgG4 antibodies, compared with upadacitinib, FIG. 4. How it is done:
Primary human PBMCs were isolated from whole blood donors, and stimulated in cuture for 3 days with 5 μg/mL PHA in a T75 flask. Cells were washed, counted, and plated at 100,000 cells/well in a 96-well plate. Antibodies were titrated at the concentrations indicated in FIG. 4, starting at 100 nM with 1:3 dilutions, and added to the cells. Recombinant IL-2 (15 pM) or IL-15 (150 pM) were added to the cells. Cells were cultured for an additional three days. SteadyGlo substrate was added for 10 minutes and the plates were read on the GloMax machine. Data were analyzed using Graphpad Prism software.

The target of test [4] is T3, IL-2RB (Homo sapiens, UniProt P14784).
T3 sequence (P14784 27-551): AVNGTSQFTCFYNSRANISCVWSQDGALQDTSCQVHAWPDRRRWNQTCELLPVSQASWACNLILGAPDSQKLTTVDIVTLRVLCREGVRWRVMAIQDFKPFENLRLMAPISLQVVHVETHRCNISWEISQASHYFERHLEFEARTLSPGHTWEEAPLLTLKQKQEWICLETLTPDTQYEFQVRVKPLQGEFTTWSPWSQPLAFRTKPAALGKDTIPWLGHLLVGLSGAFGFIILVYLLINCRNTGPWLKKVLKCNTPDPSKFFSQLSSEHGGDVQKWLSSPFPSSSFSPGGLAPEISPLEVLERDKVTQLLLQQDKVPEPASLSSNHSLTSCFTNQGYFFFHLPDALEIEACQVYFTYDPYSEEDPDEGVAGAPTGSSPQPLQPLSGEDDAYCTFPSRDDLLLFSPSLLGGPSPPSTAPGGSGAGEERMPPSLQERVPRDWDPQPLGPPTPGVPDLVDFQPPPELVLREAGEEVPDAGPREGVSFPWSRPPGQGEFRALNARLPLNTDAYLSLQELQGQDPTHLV
The test can be described thus: Ability to block IL-2 (SPR assay). Conditions: chimeric antibodies. The test is classed as binding.

The test system of test [5] is xenogeneic NSG(huIL-15Tg)/Hu-PBMC Graft vs. Host Disease (GvHD) model. The test can be described thus: Xenogeneic NSG(huIL-15Tg)/Hu-PBMC GvHD model, Example 14. The test is classed as in vivo, mice. Conditions: 10 mg/kg, 3 mg/kg, or 1 mg/kg intraperitoneally twice weekly for 4 weeks; FIG. 14. As for the experimental part:
A xenogeneic NSG(huIL-15Tg)/Hu-PBMC GvHD model testing the efficacy of the anti-CD122 antibody disclosed herein was performed at The Jackson laboratory JAX® In Vivo Pharmacology Services (Sacramento, CA). NOD-scidIL2rγ^null (NSG) human IL-15 transgenic mice were irradiated with 1 Gy followed by intravenous injection of human PBMCs in each mouse. APE15428 (IgG1-LALA) was dosed intraperitoneally at 10 mg/kg, 3 mg/kg, or 1 mg/kg twice weekly for 4 weeks starting the day following PBMC injection. Disease was monitored three times weekly by body weight loss, death, and GvHD scores measuring: weight loss, activity, fur texture, paleness, and posture.

B1: APE15170: M10-1275 series anti-CD122 antibody, VH SEQ ID NO: 23, VL SEQ ID NO: 35 (antibody, V domains shown)
VH: EVQLVQSGAEVKKPGATVKISCKVSGFNFKESLIHWVQQAPGKGLEWMGWIDNEAGETEYAPGFQDRVTITADTSTDTAYMELSSLRSEDTAVYYCARGGPWFLSYWGQGTTVTVSS
VL: EIVMTQSPATLSVSPGERATLSCRASQIISNNLHWYQQKPGQAPRLLIIYGLQSISGIPARFSGSRSGTEFTLTISSLQSEDFAVYFCQQSNNFPWTFGQGTKLEIKR
modifications: IgG4P format
Turning to B1, the Kd was found to be 0.00487 nM in test [1] and 0.0128 nM in test [2].

B2: APE15446: M10-1275 series anti-CD122 antibody, VH SEQ ID NO: 24, VL SEQ ID NO: 35 (antibody, V domains shown)
VH: EVQLVQSGAEVKKPGATVKISCKVSGFNFKESLIHWVQQAPGKGLEWMGWIDNEAGETEYAPGFQDRVTITADTSTDTAYMELSSLRSEDTAVYYCARGGPWFLSYWGQGTTVTVSS
VL: EIVMTQSPATLSVSPGERATLSCRASQIISNNLHWYQQKPGQAPRLLIIYGLQSISGIPARFSGSRSGTEFTLTISSLQSEDFAVYFCQQSNNFPWTFGQGTKLEIKR
B2: the Kd in test [1] stood at 0.00415 nM; in test [2], 0.0107 nM.

B3: M6-1625: anti-CD122 IgG4 antibody of the M6-p1625 class tested in Example 4; APE number not stated (antibody, V domains shown)
VH: QVQLQQSGAELMKPGASVKISCKSTGYTFSRYWIEWVKQRPGHGLEWIGEILPGSGSINHNEKFQGKATFTADTSSNTVYMQLSSLTSEDSAVYFCTRHYGSFDYWGQGTTLTVSS
VL: EIVMTQSPKFMSTSVGDRVSVTCKASQNVGTDVAWYQQKPGQSPKALIYSASYRYNGVPDRFTGSGSGTDFTLTISNVQSEDLAEYFCHQYSSYPFTFGSGTKLEIKR
As to B3, in test [3], the “blocking IL-2 and IL-15” value is listed as “better than upadacitinib”.

B4: APE12383: M6-p1625 series anti-CD122 antibody (chimeric in Table 3), VH SEQ ID NO: 37, VL SEQ ID NO: 70 (antibody, V domains shown)
VH: QVQLQQSGAELMKPGASVKISCKSTGYTFSRYWIEWVKQRPGHGLEWIGEILPGSGSINHNEKFQGKATFTADTSSNTVYMQLSSLTSEDSAVYFCTRHYGSFDYWGQGTTLTVSS
VL: EIVMTQSPKFMSTSVGDRVSVTCKASQNVGTDVAWYQQKPGQSPKALIYSASYRYNGVPDRFTGSGSGTDFTLTISNVQSEDLAEYFCHQYSSYPFTFGSGTKLEIKR
For B4, the “Blocking (IL-2 down)” value in test [4] is given as “Blocker”.

B5: M10-1275: anti-CD122 IgG4 antibody of the M10-1275 class tested in Example 4; APE number not stated (antibody, V domains shown)
VH: DVQLQQSGAELARPGASVKLSCTVSGFNFKDSLMHWVTQGPERGLRWIGWIDSENGETEYAPGFQDKATITADTSSSTVYLHLSSLTSEDTAIYYCARGGPWFLSYWGPGTTLTVSS
VL: DIVLTQTPATLSVTPGDSVSLSCRASQIISNNLHWYQQKSHESPRLLIIYGLQSISGIPYRFSGRRSGTDFTLNINSVEIEDFGMYFCQQSNNWPWTFGGGTKLDIRR
As for B5, the “blocking IL-2 and IL-15” value in test [3] was “better than upadacitinib”.

B6: APE12705: M10-1275 series anti-CD122 antibody (chimeric in Table 3), VH SEQ ID NO: 1, VL SEQ ID NO: 25 (antibody, V domains shown)
VH: DVQLQQSGAELARPGASVKLSCTVSGFNFKDSLMHWVTQGPERGLRWIGWIDSENGETEYAPGFQDKATITADTSSSTVYLHLSSLTSEDTAIYYCARGGPWFLSYWGPGTTLTVSS
VL: DIVLTQTPATLSVTPGDSVSLSCRASQIISNNLHWYQQKSHESPRLLIIYGLQSISGIPYRFSGRRSGTDFTLNINSVEIEDFGMYFCQQSNNWPWTFGGGTKLDIRR
In the case of B6, the “Blocking (IL-2 down)” value in test [4] is reported as “Partial”.

B7: APE15428: M6-p1625 series anti-CD122 antibody, VH SEQ ID NO: 69, VL SEQ ID NO: 77 (antibody, V domains shown)
VH: QVQLVQSGAEVKKPGASVKVSCKASGYTFTRFWIQWVRQAPGQGLEWMGEILPGSGSINHNEKFQGRVTMTRDTSTSTVYMELSSLRSEDTAVYYCTRHYGSFDYWGQGTTVTVSS
VL: DIQMTQSPSSLSASVGDRVTITCKASQNVGTDVAWYQQKPGKAPKSLIYSASYRYSGVPSRFSGSGSGTDFTLTISSLQPEDFATYFCHQYESYPFTFGQGTKLEIKR
modifications: IgG1 LALA Fc format
Regarding B7, the results for the Kd in test [1] and in test [2] were 0.0765 nM and 0.0567 nM, respectively. Also, in test [5], the “median time to survival vs. isotype control” value is “statistically significant efficacy”.

B8: APE15295: M6-p1625 series anti-CD122 antibody, VH SEQ ID NO: 68, VL SEQ ID NO: 77 (antibody, V domains shown)
VH: QVQLVQSGAEVKKPGASVKVSCKASGYTFTRFWIQWVRQAPGQGLEWMGEILPGSGSINHNEKFQGRVTMTRDTSTSTVYMELSSLRSEDTAVYYCTRHYGSFDYWGQGTTVTVSS
VL: DIQMTQSPSSLSASVGDRVTITCKASQNVGTDVAWYQQKPGKAPKSLIYSASYRYSGVPSRFSGSGSGTDFTLTISSLQPEDFATYFCHQYESYPFTFGQGTKLEIKR
modifications: IgG4P format
On to B8, for which the Kd in test [1] stood at 0.0707 nM; in test [2], 0.0557 nM.

For the origin of these results see patent US20260265385A1, “CD122 BINDING AGENTS AND METHOD OF USING SAME” (AnaptysBio, Inc., priority 2022, published 2026).
